Data reported in the nanobody polyreactivity screen of Harvey et al. (2022).

Assay: yeast display, Sf9 membrane polyspecificity reagent, FACS + sequencing; frameworks hold sequencing errors
How it was run: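 A synthetic nanobody library was expressed on Saccharomyces cerevisiae BJ5465 by galactose induction for 36–48 hours. The library was stained for 1 hour at 4 °C with 10% biotinylated, detergent-solubilized Sf9 membrane reagent and enriched with streptavidin microbeads before FACS. Low and high (top ~1%) gates were set on anti-HA fluorescence for expression and streptavidin fluorescence for reagent binding, and each polyreactivity label reflects the gate of origin.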

QVQLVESGGGLVQAGGSLRLTCAASGFIFGSYSMGWYRQAPGKERELVAAITSGGSTYYADSVKGRFTISRDNAKNTVYLQMNSLKPEDTAVYYCAKYHWRLSFSRYPYDYWGQGTQVTVSS
polyreactivity (PSR sort gate): high polyreactivity

QVQLVESGGGLVQAGGSLRLTCAASGFIFNFYAMGWYRQAPGKERELVAAISRNGGSTYYADSVKGRFTISRDNAKNTVYLQMNSLKPEDTAVYYCNAGGSYGDFGYWGKGTQVTVSS
polyreactivity (PSR sort gate): high polyreactivity

QVQLVESGGGLVQAGGSLRLTCAASGFTFDRYAMGWYRQAPGKEREVVAAISRSGTSTYYADSVKGRFTISRDNAKNTVYLQMNSLKPEDTAVYYCATRYNVYFPSRRYQYDYWGQGSQVTVSS
polyreactivity (PSR sort gate): high polyreactivity

QVQLVESGGGLVQAGGSLRLTCAASGFTFRYYAMGWSRQAPGKERELVATISTGSGVSTYYADSVKGRFTISRDNAKNTVYLQMNSLKPEDTAVYYCAAVFGWRRYVTYDYWGQGTQVTVSS
polyreactivity (PSR sort gate): low polyreactivity

QVQLVESGGGLVQAGGSLRLTCAASGGTFIKNAMGWYRQAPGKERELVAAISWSGGRTYYADSVKGRFTITRDNPKNTVYLPMNSLKPEDTAVYYCNARYAGRLSYSYEYWGQVTQVTVSS
polyreactivity (PSR sort gate): high polyreactivity

QVQLVESGGGLVQAGGSLRLTCAASGIIFCDYVMGWYRQEPGKESELVAAISASGGRTYYADSVKGRFTISRDNAKNTVYLQMTSLKPEDTAVYYCNKRYRNRYSYSEGDYWGQGTQLTVSS
polyreactivity (PSR sort gate): high polyreactivity

QVQLVESGGGLVQAGGSLRLTCAASGIIFDDYAMGWYRQAPGKERELVAAISWIGTTTYYADSVKGRFTISRDNAKKTVYFQMNILKPEDTAVYYCNARPYPSYKYDYWGQGTQVTVSS
polyreactivity (PSR sort gate): high polyreactivity

QVQLVESGGGLVQAGGSLRLTCAASGIIFFKNAMGWYRQAPGKERELVASINRSGGSTYYADSVKGRFTISRDNAKNTGYFQMNSLKPEDTAVFYCNARLTLRSYDYWGLGTQVTVSS
polyreactivity (PSR sort gate): low polyreactivity

QVQLVESGGGLVQAGGSLRLTCAASGIIFGHYAMGWYRQAPGKERELVAAITASSGNTYYADSVKGRFTISRDNAKNTVYLQMNSLKPEDTAVYYCAAVSYSSYRYDYWGQGTQVTVSS
polyreactivity (PSR sort gate): high polyreactivity

QVQLVESGGGLVQAGGSLRLTCAASGIIFYGYAIGWYRQAPGKERQLVAAISSGGGTNYADSVKGRFTISRDNAKNTVYLQMNSLKPEDTAVYYCAARQYRRVKQGNYWGQGTQVTLSS
polyreactivity (PSR sort gate): high polyreactivity

QVQLVESGGGLVQAGGSLRLTCAASGIIFYIYAMGWYRQAPGKERELVAGISWRGGSTSYADSVKGRFTISRDNAKNTVYLQMNSLKPEDTAVYYCAAEVYSWDGYDYWGQGTQVTVSS
polyreactivity (PSR sort gate): low polyreactivity

QVQLVESGGGLVQAGGSLRLTCAASGITFQYYVMGWYRHAPGKERELVAAITRRGGSTYYADSVKGRFTISRDNAKNTVYLQMNSLKPEDTAVYYCAAAITYLPAYRYNYWGQGTQVTVSS
polyreactivity (PSR sort gate): high polyreactivity

QVQLVESGGGLVQAGGSLRLTCAASGLIFAENAMGWYRQAPGKERELVASITKSGGRTYYADSVKGRFTISRDNAKNTVYLQMNSLKPEDTAVYDCAAISYFPLRTRYERWFYYWGQGTQVTVSS
polyreactivity (PSR sort gate): high polyreactivity

QVQLVESGGGLVQAGGSLRLTCAASGLTFFYYAMGWYRQAPGKERELVAGISRSGGSTYYADSVKGRFTISRDYAKNTVYLQMNSLKPEDTAVYYCAKRTLVASYIYREGEYWGQGTQVTVSS
polyreactivity (PSR sort gate): high polyreactivity

QVQLVESGGGLVQAGGSLRLTCAASGLTFPVYAKGWYRQAPGKEREFVAAISYSAGRTYYADSVKGRFTISRDNAKNTVYLQMNRLKPEDTAVYYCAAATYYSIYDYWGQGTQVTVSS
polyreactivity (PSR sort gate): high polyreactivity

QVQLVESGGGLVQAGGSLRLTCAASGLTFYYYAMGRYRQATGKETELVASISTGGKKYYADSVKGRFTISRDNANNTVYLQMNSLKPEDTAVYYCAADRYDSSQFYYWGQGTQLTVSS
polyreactivity (PSR sort gate): low polyreactivity

QVQLVESGGGLVQAGGSLRLTCAASGNIFDLYAMGWYRQAPGTERELVASITSDGITYYADSVKGRFTISRDNAKNTVYLQMNSLKPEDSAVYYCAVVRSYRYLPRGDYWGQGTQVTVSS
polyreactivity (PSR sort gate): low polyreactivity

QVQLVESGGGLVQAGGSLRLTCAASGNNYLDNAMGWYRQAPGKERELVASITRSGSRTYYADSVKGRFTISRDNAKNTGYFQMNSLKPEDTAVFYCNAGVNERQYDYWGLGTQVTVSS
polyreactivity (PSR sort gate): high polyreactivity

QVQLVESGGGLVQAGGSLRLTCAASGRIFFYYSMGWYRQAPGKERELVAAIRSGGSTNYADSVKGRFTISRDNAKNTVYLQMYILKPEDTAGYYSAAHPTRYYTPRYYYWGLGTQVTVSS
polyreactivity (PSR sort gate): high polyreactivity

QVQLVESGGGLVQAGGSLRLTCAASGRIFGRNTMGWYRQAPGKEMELVAAISSSGGSTRYADSVKGRFTISRDNAKNTVYIQMNSLKPEDTALYYCAAVRNRHGYDYWGKGTQVTVSS
polyreactivity (PSR sort gate): high polyreactivity

QVQLVESGGGLVQAGGSLRLTCAASGRIFITNAMGWYSQAPGKEREMVAVISYIGGRTYYADSVKGRFTISRDNAKNTVYLQMNSLKPEDTAVYYCAARRSRPTYYSTGVNYWGQGTQVTVSS
polyreactivity (PSR sort gate): high polyreactivity

QVQLVESGGGLVQAGGSLRLTCAASGRIFIYYAMGWYRQAPGKERELVAAISWGGGRTYYADSVKGRFTISRDNAKNTVYLQMNSLKPEDTAVYYCAAGVYTGQHEYDYWGQGTQVTVSS
polyreactivity (PSR sort gate): low polyreactivity

QVQLVESGGGLVQAGGSLRLTCAASGRIFLINPMGWYRQAPGKDRELVAGIRGRTGSTNYADSVKGRFTISRDNAKNTVYLQMNRLKPEDTAVYYCAARFSVQDGGPYAYDYWGQGTQVTVSS
polyreactivity (PSR sort gate): low polyreactivity

QVQLVESGGGLVQAGGSLRLTCAASGRIFNIYAMGWYRQAPGKERELVAAISVSGTRTYYADSVKGRFTISRDNAKNTVYLHMNSLKPEDTAVYYCAADSYGGVWTEHMYYWGQGTQVTVSS
polyreactivity (PSR sort gate): low polyreactivity

QVQLVESGGGLVQAGGSLRLTCAASGRIFRTYAMGWYRQAPGKERELVAAISGRGGNTYYADSVKGRFTISRDNAKNTVYLQMNSLKPEDTAVYYCAASKPSRDTQQRWVYAGYDYWGQGTQVTVSS
polyreactivity (PSR sort gate): high polyreactivity

QVQLVESGGGLVQAGGSLRLTCAASGRIFSANAMGWYRKAPGKERELVATISTGGGRTYYADSVKGRFTISRDYAKNTVYLQMNSLKAEDTAVYYCNDTGNYARFLYYSWCQGTQVTVSS
polyreactivity (PSR sort gate): high polyreactivity

QVQLVESGGGLVQAGGSLRLTCAASGRIFSANAMGWYRLAPGKERELVAGIDSGGSTNYADSVKGRFTISGDNAKNTVYLQMNSLKPEDTAVYYCAKYRGRGNTYNGGYDYWGQVTQVTVSS
polyreactivity (PSR sort gate): low polyreactivity

QVQLVESGGGLVQAGGSLRLTCAASGRIFSHNTMGWYRQAPGKERELVAAISGGGGRTYYADSVKGRFTISRDNAKNTVYLQMKSLKPEDTAVYYCAAVRVSYRSLSKSYYWGQGTQVTVSS
polyreactivity (PSR sort gate): high polyreactivity

QVQLVESGGGLVQAGGSLRLTCAASGRIFTRYAMGWYRQAPGKERELVAAISYGGGGTYYADSVKGRFTISRDNAKNTVYLQMNSLKPEVTSVYYCAADPGYYSWGSSQDDYWGQGTQVTVSS
polyreactivity (PSR sort gate): low polyreactivity

QVQLVESGGGLVQAGGSLRLTCAASGRIFYGYTMGWYRKAPGKERELVAAITRRGGRTYYADSVKGRFTISRDNAKNTVYLQMNCLKPEDTAVYYCAATRSGEYDYWGQGTQVTVSS
polyreactivity (PSR sort gate): high polyreactivity

QVQLVESGGGLVQAGGSLRLTCAASGRIIIGYVMGWYRQAPGKERELVATISYSGGSTYADSVKGRFTISRDNAKNTVYLQMNSLKPEDTAVYYCAARPYYRYYRYPYGYWGQGTQVTVSS
polyreactivity (PSR sort gate): high polyreactivity

QVQLVESGGGLVQAGGSLRLTCAASGRILGYNDMGWYRHAPGKERELVPTSSGTSTYYADSVKGRFTISRDNAKNTVYLQMNSLKPEVTAVYYCNTDYVITLPAYDYWGQGTQVTVSS
polyreactivity (PSR sort gate): low polyreactivity
